Experimental data published in patent US9388387B2, “Differentiation of human embryonic stem cells” (Janssen Biotech, Inc., priority 2008, dated 2016).

System: cells of the human embryonic stem cell line H1 differentiated to stage 6
Assay: Real-time PCR gene expression profile of stage 6 cultures +/- activin A, enriched using a 40 μm filter
Assay type: cell-based
Details: 10 ng/ml activin A added at stage 6 for seven days, H1 cells passage 43, FIG. 4 panels a-f
Method: (1:30 dilution) coated dishes and exposed to RPMI medium supplemented with 2% BSA (Catalog#152401, MP Biomedical, Ohio), and 100 ng/ml activin A (R&D Systems, MN) plus 20 ng/ml WNT-3a (Catalog#1324-WN-002, R&D Systems, MN) plus 8 ng/ml of bFGF (Catalog#100-18B, PeproTech, NJ), for one day followed by treatment with RPMI media supplemented with 2% BSA and 100 ng/ml activin A plus 8 ng/ml of bFGF for an additional two days. Next the cultures were treated with DMEM/F12+2% BSA+50 ng/ml FGF7+0.25 μM Cyclopamine-KAAD (#239804, Calbiochem, CA) for two days, followed by four days incubation in DMEM/F12+1% B27 (Invitrogen, CA)+50 ng/ml FGF7+0.25 μM Cyclopamine-KAAD+2 μM Retinoic acid (RA) (Sigma, MO)+100 ng/ml of Noggin (R & D Systems, MN).
Cells were differentiated into pancreatic endocrine cells by incubating the cells in DMEM/F12+1% B27 (Invitrogen, CA)+100 ng/ml Noggin+1 μM DAPT (a gamma-secretase inhibitor) (Catalog#565784, Calbiochem, CA)+1 μM ALK5 inhibitor II (Catalog#616452, Calbiochem, Ca)+100 ng/ml of Netrin-4 (R&D Systems, MN) for three days followed by additional seven days incubation in DMEM/F12+1% B27 (Invitrogen, CA)+1 μM ALK5 inhibitor II (Calbiochem, Ca). […] At each stage cell number was calculated using a hemocytometer and RNA was collected for PCR analysis. […]

B1: activin A: a member of the TGF-β superfamily; TGF-β receptor agonist (R&D Systems, MN) (protein, UniProt P08476 311-426, looked up)
Inhibin beta A chain: GLECDGKVNICCKKQFFVSFKDIGWNDWIIAPSGYHANYCEGECPSHIAGTSGSSLSFHSTVINHYRMRGHSPFANLKSCCVPTKLRPMSMLYYDDGQNIIKKDIQNMIVEECGCS
expression of pancreatic endocrine markers (pdx-1, nkx6-1, Pax4, nkx2.2, insulin, glucagon): significantly boosted expression of all key pancreatic endocrine markers
